Assay results published in paper PMC11742450, “Engineering a membrane protein chaperone to ameliorate the proteotoxicity of mutant huntingtin” (Nature Communications, 2025).

Target: T1, His6-hsPEX19-WT (human, UniProt P40855 1-299)
T1 construct: human PEX19 (hsPEX19); the human PEX19 gene cloned into pET-33b; Made in E. coli, so probably not farnesylated (surmise); also called human PEX19; His6-PEX19; source: E. coli BL21 Star (DE3), purified (Ni-NTA)
T1 sequence (looked up): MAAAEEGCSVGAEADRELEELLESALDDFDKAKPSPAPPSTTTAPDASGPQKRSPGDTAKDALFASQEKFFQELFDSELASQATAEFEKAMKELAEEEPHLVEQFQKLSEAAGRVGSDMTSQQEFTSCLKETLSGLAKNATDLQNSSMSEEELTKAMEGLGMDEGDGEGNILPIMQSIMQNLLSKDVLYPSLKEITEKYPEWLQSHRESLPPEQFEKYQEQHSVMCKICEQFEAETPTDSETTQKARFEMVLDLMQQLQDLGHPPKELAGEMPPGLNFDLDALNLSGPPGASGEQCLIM
Assay: pull-down; His6-PEX19 pulldown with PEX26; input, flowthrough and elution analysed by Western blot with Strep (PEX26) and PEX19 antibodies; hsPEX19 at about 3-fold the endogenous concentration
Details: both partners purified

B1: 2 × Strep-SUMO-PEX26 (237-305aa) (domain or fragment, UniProt Q7Z412 237-305, looked up)
chain: RQLWDSAVSHFFSLPFKKSLLAALILCLLVVRFDPASPSSLHFLYKLAQLFRWIRKAAFSRLYQLRIRD
B1: binds.
